Source: IntAct's records for PubMed 39243984

B1: Mothers against decapentaplegic homolog 4 (Homo sapiens), Q13485 (parent)
chain: MDNMSITNTPTSNDACLSIVHSLMCHRQGGESETFAKRAIESLVKKLKEKKDELDSLITAITTNGAHPSKCVTIQRTLDGRLQVAGRKGFPHVIYARLWRWPDLHKNELKHVKYCQYAFDLKCDSVCVNPYHYERVVSPGIDLSGLTLQSNAPSSMMVKDEYVHDFEGQPSLSTEGHSIQTIQHPPSNRASTETYSTPALLAPSESNATSTANFPNIPVASTSQPASILGGSHSEGLLQIASGPQPGQQQNGFTGQPATYHHNSTTTWTGSRTAPYTPNLPHHQNGHLQHHPPMPPHPGHYWPVHNELAFQPPISNHPAPEYWCSIAYFEMDVQVGETFKVPSSCPIVTVDGYVDPSGGDRFCLGQLSNVHRTEAIERARLHIGKGVQLECKGEGDVWVRCLSDHAVFVQSYYLDREAGRAPGDAVHKIYPSAYIKVFDLRQCHRQMQQQAATAQAAAAAQAAAVAGNIPGPGSVGGIAPAISLSAAAGIGVDDLRRLCILRMSFVKGWGPDYPRQSIKETPCWIEIHLHRALQLLDEVLHTMPIADPQPLD

Variants of: B1
Details: with smad3_human SMAD3, P84022
Chain of smad3_human SMAD3, P84022 (P84022 whole entry, looked up): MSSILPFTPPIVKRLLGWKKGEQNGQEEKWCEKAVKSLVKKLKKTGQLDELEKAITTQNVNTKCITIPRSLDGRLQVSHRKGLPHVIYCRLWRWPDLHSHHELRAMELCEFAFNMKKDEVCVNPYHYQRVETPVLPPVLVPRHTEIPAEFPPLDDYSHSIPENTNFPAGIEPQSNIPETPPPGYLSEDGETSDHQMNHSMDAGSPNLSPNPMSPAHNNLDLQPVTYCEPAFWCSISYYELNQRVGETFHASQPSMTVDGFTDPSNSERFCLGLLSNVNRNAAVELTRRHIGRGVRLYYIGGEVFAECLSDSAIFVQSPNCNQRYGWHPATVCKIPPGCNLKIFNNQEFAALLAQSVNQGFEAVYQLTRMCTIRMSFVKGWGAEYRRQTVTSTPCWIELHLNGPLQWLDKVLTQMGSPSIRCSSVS

Row | effect of a mutation on the interaction | Variant
1 | decreasing interaction strength | R361H
2 | decreasing interaction strength | R361C

Variants of: B1
Details: with smad3_human SMAD3, P84022
Remark: another data set of the same source

Row | effect of a mutation on the interaction | Variant
3 | increasing interaction strength | I500V
